From patent publication US20180147281A1 (Astellas, published 2018)

B1: Tanezumab (antibody, V domains shown)
VH: QVQLQESGPGLVKPSETLSLTCTVSGFSLIGYDLNWIRQPPGKGLEWIGIIWGDGTTDYNSAVKSRVTISKDTSKNQFSLKLSSVTAADTAVYYCARGGYWYATSYYFDYWGQGTLVTVSS
VL: DIQMTQSPSSLSASVGDRVTITCRASQSISNNLNWYQQKPGKAPKLLIYYTSRFHSGVPSRFSGSGSGTDFTFTISSLQPEDIATYYCQQEHTLPYTFGQGTKLEIKR
B2: fully human anti-human NGF antibody 1-15 (N52D-A)-Fab' fragment (Fab, V domains shown)
VH: QVQLQQWGAGLLKPSETLSLTCAVYGGSFSGYYWSWVRQPPGKGLEWIGEIDHSGSTNNNPSLKSRVTISVGTSKNQFSLKLSSVTAADTAVYYCSRDGGPESGMGAFDIWGQGTMVTVSS
VL: not shown

What was measured:
[1] = molecular target: T1, human NGF (R&D Systems, 256-GF-100/CF) (human, UniProt P01138 122-241, in the competitive ELISAs biotinylated with EZ-Link NHS-PEG4-Biotin (sites not given); unlabelled when immobilized in the binding ELISA); assay: human NGF-trkA competitive ELISA; geometric average of three tests
T1 construct: Commercial recombinant protein; also called biotinylated human NGF; nerve growth factor

[2] = molecular target: T1, human NGF (R&D Systems, 256-GF-100/CF); assay: ELISA, human NGF immobilized, detection with biotinylated anti-human kappa light-chain antibody; geometric average of two runs
[3] = molecular target: T1, human NGF (R&D Systems, 256-GF-100/CF); assay: human NGF-trkA competitive ELISA after incubation of the antibody 14 days at pH 6 and 50 C; geometric average of two runs
[4] = molecular target: T1, human NGF (R&D Systems, 256-GF-100/CF); assay: human NGF-trkA competitive ELISA, IC50 after against before incubation
[5] = molecular target: T1, human NGF (R&D Systems, 256-GF-100/CF); assay: human NGF-trkA competitive ELISA, trkA immobilized, biotinylated human NGF; geometric average of two runs

Binder | IC50 [1] [µg/mL] | EC50 [2] [µg/mL] | IC50 [3] [µg/mL] | increase rate of the IC50 value after incubation for 14 days at 50 C relative to that before the incubation [4] [%] | IC50 [5] [µg/mL]
B1 | 0.86 | 0.146 | – | – | –
B2 | – | – | 0.47 | 59 | 0.3
